{
  "source": "paper PMC7359698",
  "target": "ephrin-A1-S6 (human ephrin-A1 with an internal S6 peptide tag, GPI-anchored) (human) (UniProt P20827)",
  "experiment": "FRET or BRET; heteroFRET by flow cytometry (sensitised emission, compensated; efficiency from median fluorescence intensities); live HEK293 cells in suspension in DPBS + 0.5% BSA, S6-tagged receptor labelled with A547 and A647; for T-cadherin-S6 also followed in time after 10 μg/mL adiponectin",
  "data": [
    {"substance": "ephrin-A1-S6 (human ephrin-A1 with an internal S6 peptide tag, GPI-anchored) (from UniProt P20827 19-182) (ligand)", "values": [
      {"measurement": "FRET efficacy", "result": 14, "unit": "%"}
    ]}
  ]
}
